Measurements from article PMC3961337, “FRET-Based System for Probing Protein-Protein Interactions between σ^R and RsrA from Streptomyces Coelicolor in Response to the Redox Environment” (PLoS ONE, 2014).

B1: rsrA-cfp-pET28a (+) protein (RCP) (natural protein, S. coelicolor M145, UniProt Q7AKG8 1-105, looked up)
chain: MSCGEPHETDCSEILDHLYEFLDKEMPDSDCVKFEHHFEECSPCLEKYGLEQAVKKLVKRCCGQDDVPGDLRAKVMGRLDLIRSGQSVPEHDVAAAPSSSAPQES
notes: anti-sigma factor RsrA of Streptomyces coelicolor, amplified from the M145 genome with primers rsrAA and rsrAB; RsrA, then E-F (EcoRI site) and G-G-S, then CFP from M-V-S-K-G to M-D-E-L-Y-K (worked out from primers cfpA and cfpB), cloned NcoI/EcoRI/HindIII in pET28a (+); source: E. coli BL21 (DE3), purified (Ni-NTA); also co-expressed with SYP in E. coli BL21 (DE3) cells, unpurified; not shown: …
B2: RCP with the histidine tag removed by thrombin (zinc function assay) (natural protein, S. coelicolor M145, UniProt Q7AKG8 1-105, looked up)
chain: B1 chain
notes: anti-sigma factor RsrA of Streptomyces coelicolor, amplified from the M145 genome with primers rsrAA and rsrAB; Same construct as m4 after thrombin; Zinc removed with EDTA (apo-RCP); Zn-RCP is the same protein with 500 uM ZnSO4 added; also called apo-RCP; Zn-RCP; not shown: CFP (after a glycine-glycine-serine linker), C-terminal, kept; His tag, N-terminal, cleaved

Experiments:
Settings in all cases: both partners purified
[1] = molecular target: T1, sigR-yfp-pET28a (+) protein (SYP) (S. coelicolor M145, UniProt Q7AKG9 1-227, biotinylated for the biolayer interferometry only); experiment: FRET or BRET; FRET efficiency titration: increasing SYP (or YFP) from 0.1 nM to 0.85 μM added to a determined concentration of RCP in binding buffer with 2.5 mM DTT; single-site binding curve
T1 construct: ECF sigma factor σR (SigR) of Streptomyces coelicolor, amplified from the M145 genome with primers sigRC and sigRD; the primers encode M-G-T-G-T-D-A at the start (after the NcoI site) and K-G-S-G-S before the HindIII site (worked out from the primers); σR, then K-L (HindIII site) and G-G-S, then YFP from M-V-S-K-G to M-D-E-L-Y-K (worked out from primers yfpC and yfpD), cloned NcoI/HindIII/XhoI in …
T1 sequence (Q7AKG9 whole entry): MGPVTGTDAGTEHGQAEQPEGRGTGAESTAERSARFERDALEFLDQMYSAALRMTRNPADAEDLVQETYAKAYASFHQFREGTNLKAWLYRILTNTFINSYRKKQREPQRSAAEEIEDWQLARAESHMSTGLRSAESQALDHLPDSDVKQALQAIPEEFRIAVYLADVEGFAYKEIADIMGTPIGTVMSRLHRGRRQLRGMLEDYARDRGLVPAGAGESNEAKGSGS

[2] = molecular target: T2, SYP with the histidine tag removed by thrombin (zinc function assay) (S. coelicolor M145, UniProt Q7AKG9 1-227); experiment: FRET or BRET; zinc function assay, Zn-sample (500 μM ZnSO4) after removal of DTT and addition of 1 mM diamide; FRET ratio emission 528 nm/478 nm
T2 construct: ECF sigma factor σR (SigR) of Streptomyces coelicolor, amplified from the M145 genome with primers sigRC and sigRD; the primers encode M-G-T-G-T-D-A at the start (after the NcoI site) and K-G-S-G-S before the HindIII site (worked out from the primers); Same construct as m3 after thrombin; not shown: YFP (after a glycine-glycine-serine linker), C-terminal, kept; His tag, N-terminal, cleaved
T2 sequence (Q7AKG9 whole entry): as above

[3] = molecular target: T2, SYP with the histidine tag removed by …; experiment: FRET or BRET; zinc function assay, apo-sample: His tags removed by thrombin, zinc removed with 5 mM EDTA; SYP and RCP at the same concentration, no ZnSO4; FRET ratio emission 528 nm/478 nm
[4] = molecular target: T2, SYP with the histidine tag removed by …; experiment: FRET or BRET; zinc function assay with ZnSO4: His tags removed by thrombin; increasing ZnSO4 added to the mixture (Fig. 4A) and 500 μM ZnSO4 for the spectra (Fig. 4B); FRET ratio emission 528 nm/478 nm

| Binder | Kd [1] [nM] | FRET ratio (emission 528 nm/478 nm), Zn-sample with diamide [2] | FRET ratio (emission 528 nm/478 nm), no ZnSO4 added [3] | FRET ratio (emission 528 nm/478 nm), with 500 μM ZnSO4 [4] |
| --- | --- | --- | --- | --- |
| B1 | 81 ± 29 | – | – | – |
| B2 | – | 2.2 | 2.3 | 2.8 |
